± gives the uncertainty stated by the source.
B1: Ventral anterior homeobox 1, residues 102 to 157; numbered along this chain, Q5SQQ9 (parent)
chain: RTRTSFTAEQLYRLEMEFQRCQYVVGRERTELARQLNLSETQVKVWFQNRRTKQKK

Variants of: B1
Assay: abundance fitness (aPCA) (normalised: wild type 0, dead -1); higher = more abundant; growth selection in yeast, the domain comes from the species named
Conditions: Homo sapiens

Variant	abundance fitness
R27H	-0.245 ± 0.26
R27I	0.19 ± 0.43
R27L	-0.049 ± 0.13
R27Q	0.009 ± 0.15
R27G	0.003 ± 0.097
R27F	-0.141 ± 0.37
R27N	0.156 ± 0.29
R27A	0.07 ± 0.14
R27Y	-0.108 ± 0.21
R27V	-0.01 ± 0.12
R27S	0.18 ± 0.15
R27P	0.008 ± 0.18
R27T	0.013 ± 0.15
R27E	0.167 ± 0.15
R27K	-0.045 ± 0.2
R27C	-0.026 ± 0.2
L32K	-0.641 ± 0.42
L32C	-0.777 ± 0.39
L32G	-1.21 ± 0.43
L32R	-0.826 ± 0.2
L32M	-0.314 ± 0.3
L32A	-0.791 ± 0.34
L32Q	-0.959 ± 0.34
L32W	-1.04 ± 0.27

Variant	abundance fitness
L32V	-0.542 ± 0.19
N37T	-0.254 ± 0.39
N37R	-0.134 ± 0.12
N37W	-0.605 ± 0.2
N37A	-0.211 ± 0.23
N37G	-0.04 ± 0.12
N37C	-0.037 ± 0.21
N37E	-0.033 ± 0.26
N37M	-0.536 ± 0.4
N37K	-0.092 ± 0.22
N37D	-0.049 ± 0.2
N37F	-0.183 ± 0.42
N37V	-0.464 ± 0.29
N37L	-0.307 ± 0.18
N37Q	0.06 ± 0.27
N37S	-0.239 ± 0.19
R34E	-0.235 ± 0.24
R34L	-0.273 ± 0.18
R34A	0.179 ± 0.15
R34D	-0.203 ± 0.36
R34K	-0.197 ± 0.3
R34Q	-0.361 ± 0.3
R34M	-0.256 ± 0.26
R34P	-0.907 ± 0.49

Variant	abundance fitness
R34C	-0.395 ± 0.4
R34W	-0.42 ± 0.33
R34V	-0.074 ± 0.12
R34Y	-0.655 ± 0.41
R34I	-0.325 ± 0.48
R34S	-0.061 ± 0.17
E31K	-0.592 ± 0.21
E31Q	-0.347 ± 0.17
E31H	-0.468 ± 0.3
E31N	0.028 ± 0.41
E31S	-0.386 ± 0.15
E31T	-0.243 ± 0.19
E31I	-0.399 ± 0.28
E31P	-0.662 ± 0.24
E31L	-0.5 ± 0.15
E31W	-0.721 ± 0.21
E31G	-0.454 ± 0.12
E31R	-0.657 ± 0.12
E31Y	-1.04 ± 0.43
E31C	-0.683 ± 0.22
E31V	-0.315 ± 0.14
E31D	-0.234 ± 0.29
E31F	-0.795 ± 0.32
Q35N	-0.206 ± 0.24

Variant	abundance fitness
Q35R	-0.028 ± 0.11
Q35M	-0.087 ± 0.15
Q35F	-0.292 ± 0.21
Q35D	-0.005 ± 0.19
Q35I	-0.236 ± 0.2
Q35H	-0.167 ± 0.26
Q35V	-0.265 ± 0.13
Q35S	0.037 ± 0.12
Q35A	0.052 ± 0.13
Q35L	-0.135 ± 0.14
Q35E	-0.032 ± 0.17
Q35G	-0.182 ± 0.1
Q35T	-0.205 ± 0.23
Q35C	-0.08 ± 0.14
Q35W	-0.304 ± 0.17
Q35K	0.093 ± 0.18
Q35Y	-0.414 ± 0.2
Y23H	0.04 ± 0.34
Y23V	-0.045 ± 0.21
Y23F	-0.088 ± 0.24
Y23C	-0.145 ± 0.26
Y23M	0.181 ± 0.28
Y23G	-0.21 ± 0.2
Y23Q	0.132 ± 0.34

Variant	abundance fitness
Y23D	-0.164 ± 0.42
Y23W	-0.527 ± 0.35
Y23I	-0.117 ± 0.29
Y23E	0.012 ± 0.35
Y23N	0.069 ± 0.46
Y23K	0.051 ± 0.29
Y23L	0.055 ± 0.15
Y23A	0.082 ± 0.19
Y23S	0.03 ± 0.15
E28A	-0.318 ± 0.12
E28F	-0.513 ± 0.26
E28T	-0.247 ± 0.17
E28L	-0.369 ± 0.12
E28W	-0.483 ± 0.19
E28D	-0.077 ± 0.24
E28S	-0.338 ± 0.15
E28K	-0.78 ± 0.28
E28Y	-0.661 ± 0.4
E28R	-0.596 ± 0.13
E28M	-0.446 ± 0.2
E28V	-0.419 ± 0.12
E28I	-0.657 ± 0.29
E28C	-0.412 ± 0.18
E28H	-0.318 ± 0.2

Variant	abundance fitness
E28P	-0.171 ± 0.22
E28Q	-0.394 ± 0.19
E28N	-0.459 ± 0.27
E28G	-0.39 ± 0.1
E40H	-1.01 ± 0.38
E40M	-0.852 ± 0.25
E40I	-0.557 ± 0.26
E40K	-0.676 ± 0.35
E40D	-0.128 ± 0.16
E40L	-0.711 ± 0.15
E40W	-0.736 ± 0.22
E40C	-0.226 ± 0.22
E40Y	-0.712 ± 0.41
E40S	-0.283 ± 0.14
E40Q	-0.507 ± 0.19
E40V	-0.315 ± 0.12
E40R	-0.57 ± 0.12
E40A	-0.215 ± 0.16
E40G	-0.413 ± 0.098
E40P	-0.318 ± 0.17
S39H	-0.334 ± 0.17
S39P	0.033 ± 0.19
S39I	-1.08 ± 0.44
S39W	-0.959 ± 0.24

Variant	abundance fitness
S39K	-0.25 ± 0.2
S39C	-0.266 ± 0.16
S39Q	-0.313 ± 0.15
S39E	-0.115 ± 0.18
S39L	-0.591 ± 0.15
S39V	-0.488 ± 0.16
S39G	-0.375 ± 0.11
S39M	-0.595 ± 0.2
S39T	-0.218 ± 0.17
S39Y	-0.649 ± 0.34
S39N	0.063 ± 0.25
S39F	-0.435 ± 0.19
S39R	-0.417 ± 0.11
S39D	0.264 ± 0.18
V25R	-0.16 ± 0.11
V25T	-0.087 ± 0.12
V25M	-0.396 ± 0.21
V25W	-0.633 ± 0.16
V25P	-0.29 ± 0.18
V25A	0.042 ± 0.14
V25S	-0.071 ± 0.13
V25Q	0.121 ± 0.17
V25C	0.114 ± 0.25

Reference: the Human Domainome abundance scans (Beltran et al. 2025)
